Data as given in the domain aggregation screens of Martell et al. (2025).

Experiment: soluble fraction after stress (log2 fold change); higher = more stays soluble; pooled small domains, quantitative proteomics
Conditions: stress: pH 4
Procedure, shortened: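 Pooled custom libraries of small protein domains were stressed at pH 4 and then measured by high-throughput quantitative proteomics. The fold change in the amount of each domain that stays soluble after the acid stress serves as a measure of aggregation propensity. Fold changes are given on a log2 scale, and higher values mean more of the domain stayed soluble.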

Row | Sequence | soluble fraction (log2)
1 | HMDAQNLQDQLFGFLKANPTQAYPAQTLADGLRLDDANAFTKVVQALAALERGGKVKVNEEGAFQYDAEK | -0.0669
2 | HMEVLTEPKVQSIDTHGEKSTFVIESPNPLQPDEIAKLVGADGISVRVDRTWLKSHRDSTWTYSILTVS | 0.163
3 | HMPQPDVIEVRQGIVTGMRPDRRTGWLRDEEDAAGEPKSFSIDVITPKGRTPGKGAVVTYTLTNGKITEVK | 0.143
4 | HMRDQARQFFIDTWAKFQRHDALTPLEEKTAAIIALHPEYHRVLQNPESFITTDWRPESGDINPFMHL | -0.803
5 | HMNGIFEYSDAKKVPSLVEIENAYRRARVNGAEKFAVIINGEYFGYNPQKRGIYKLNDGEYQIL | 0.115
6 | HMNKELVVPDLTDMRVKDAEFEAHQVGMRTEIVDSVYVRRLKRGYVYKQNPVPGSKVKKGRRIALTINAV | 0.1
7 | HMLEYIEPRTAVQIHGIKAKPELNGKRGMVMGYAPERMRYRVRIDVGEGTGGKESEEVYLKPENVIAVK | 0.101
8 | HMAQPIPSGSDIREAREAAGMNLRDFARMVGGGAIGTWSHYETGKPIRVKSISPEVWQRVRDFILQHGK | 0.036
9 | HMGEVPPGWSVEALAAIERDLAHHVGPVARVLVQRGARLHTTTDDLRSALANAITDDLARRRFMQP | -0.635
10 | HMEAQAHYDAIYKAHPNADSIAQSAEFKAWVDAQPSVVRNAYWQLFDPKEGGTAEQIVEVFDAFVKSS | -1.83
11 | HMKTPETSEYVVQAGDSLRRILTERYGAKEQDLPYLYRQFRLLNPKVSSLDNIHAGTKVRIPLVASVL | -0.0112
12 | HMVGNEEALRAIVESIIAQNTTEVASFREGKEGLIGWFLGQVMRQTGGKADPKLARQILLELLKQ | -0.492
13 | HMRDYKTALQEWVQRTPGQPIAYRLVDELGPDHARVFVMEVTVGGQSAGQGRGRTKKEAEQLAARAALEKL | -0.0915
14 | HMSDYKSYLQELVQTDKKSLSYNVVKETGPAHDKTFEVEVEVDGIIYAHGVGKSKKEAEQNAAKNAIMISA | -0.24
15 | HMGLTRRAQLEVADANLKRLYPGMHQSWVTAIAEYLHSSYWRYINSLEPEYAASIQRVYEQHIDAM | -0.0592
16 | HMSRYAFEGNVVRLNQKDFDSWKALFTNIDLVSELTRLDIEFTHDKPKNWFSTASAKLNYQNKNAY | -0.903
17 | HMKASEMKKGQTIKIDGVLYVIVDFQHVKLSKGGAVYQTKLRNLAAGGIRDIRIRAEEVLEDA | -0.515
18 | HMDFTPDQIARLDDIISRYKDKPGGLIPVLEEAQVALEYLPIGVQKRIAKGLNLPLSRVYGVVTFYSFFTM | -0.451
19 | HMDKSFYETFEKIGHGDFDKGLNHVWQHANDGNGTATLLLSKLFLEFGDLDNFEKYLNISAEQSNPVAMKI | -0.191

Row | Sequence | soluble fraction (log2)
20 | HMDRSIGDIIAELRDLSAEQVERVLAHQRETGVRFGEAAVALGYASKEDVLFALSQQFHYPYAPEE | -0.946
21 | HMRPYAYGTGRRKSSTARVHLIPNGSGSITINGRTLDEYFGLETLKLIVRQPLAATETAEKFDVEATVV | -0.509
22 | HMLAYQRTYEKILEDLRNDVYPVNSLLPPEPKLEEIYHVSRTTVRRAIAQLADEGYVKVKQGYGTVVLKN | 0.22
23 | HMKKEDFLEILRDYLKKGFSEDEVMDILRDYEEYFVDGIIEGKSEIEIIQSLGSPKEIANELLAES | -0.754
24 | HMSSHNIALDQDVVVTQLKGKVYLVAADGSQKQLAEGDILPKDAVLITPEGASFKGGNQTFTLS | -0.235
25 | HMVWINIRDLSDLFSKSGKSENSKNILDLQTLKIEKLLGGGQINTPYTIKVKQATPSAIEKVKQAGGEVIL | -0.00604
26 | HMSGSFDVTLDYLNSLRNLYPAIDVEQEFRKMYAWLDSNPKNRKTERGIKRFITGWLGRAQDKAP | -0.9
27 | HMINKQPKDYEYFLEKWHFTQTEKHQLHNLILKLNIRYPNKDFLKITENLDNGKLVLKKLEERLSKT | -0.7
28 | HMLFKGDTREENVILEFLSKNGTTSSDAIIKQTGLSASEFNQAITMLELKGLALNNGGEKWSL | -0.0366
29 | HMSGQLTEEQVKQIVTTAVKNSSGSTLTAAEVSRIVSTAVANNLTADQVKTVVNNALAGITTDISTLKA | 0.202
30 | HMDSNFNYELVGFRLDDMGLNSSVIVKRNNQEFVIQKGDLLENKYLLNSVTKKNINFSYLGKNYQI | -0.731
31 | HMETAESLLRRLIMLEDPAMQNAMYVLAVMLERGKQLVERAAKPHESGGILRVYEHKKSGDTFVVLDPR | -1.05
32 | HMLENSLDHIEGIGPKTKDTLLTYFKSVSKIKSANPSILAELIGAAKTKILLAAFEKEKTTS | 0.17
33 | HMLPRNKRIEIALTYIYGLGRHAATVVLKHANISPDKRTDDLDENDVRKLRDAIDANFRVEGDLRR | -0.0555
34 | HMAGTRVWSENGQLYVTAAVSGRANVYNVLGKLNRSLTFSAGETKSVSVPAGIYVVSLNNGKAYKVAV | 0.0936
35 | HMVPTATVGENTSTLPVRQLPGGPVLVVLVRGDIVLPLPGHAFQNGDVWREISTVNGVIGWVPDEFLDY | -1.3
36 | HMATESYYVLKADVPAKTLVTQEMVEEIKVSKGGAPVNSIKIDNIKEKGVYTSIPLLKGDVLSASNTG | -0.358
37 | HMVSDTGAIEAIVAQVLADNPKLVEGYLATPEDKRGKAIGPFIGLTRKAAAGVNPQVVMDVLKKKLSEL | -0.733
